Results from EP4785962A1, “ANTIBODY-DRUG CONJUGATE TARGETING TROP2, AND PREPARATION METHOD AND USE THEREFOR” (priority 2023, dated 2025).
Substitutions are numbered along the chain they refer to.

Tests used:
[1] = system: Human gastric cancer cell line NCI-N87; assay: Mouse xenograft tumor model NCI-N87; assay type: in vivo, immunodeficient mice CB17-SCID; conditions: intraperitoneal injection
Protocol: • 1. Mice: immunodeficient mice CB17-SCID (Vital River) aged 6-8 weeks were placed in an SPF experimental environment for 3-5 days before the experiment to better adapt to the current living environment. In all experiments, the long and short diameters of the tumor were measured twice a week using a vernier caliper, and the tumor volume (mm^3) was calculated from the measured data. The calculation formula is as follows: Tumor volume(mm^3) = 0.5 × long diameter(mm) × short diameter(mm) × short diameter(mm) [formula] • 2. Human gastric cancer cell line NCI-N87 (ATCC) cells were resuspended in 1× PBS (Gibco, 10010049) at an appropriate concentration, and the tumor cells were implanted subcutaneously in the right abdomen of the mice at an inoculation amount of 2×10^6 /mouse. When the tumor volume reached 150-200 mm^3, the mice were divided into groups such that the average initial administration volume of each group was substantially the same. After grouping, different doses of antibody-drug conjugates hRs7-DXd, hRS7-MB3 and hTINA1-DXd, or control-drug conjugates IgG-MB3, IgG-DXd and IgG control were administered by intraperitoneal injection. […] Compared with hRS7-DXd, hRS7-MB3 has a stronger tumor inhibitory effect. […] Non-small cell lung cancer cell line HCC827 cells purchased from ATCC were inoculated subcutaneously into mice (2×10^6 /mouse), and when the tumor volume reached 120-150 mm^3, the mice were grouped and administered. Different doses of the antibody-drug conjugate and the control drug were intraperitoneally injected into the mice, and the administration was performed only once throughout the experiment. The growth status of the mice was observed, and the changes in tumor volume of the mice were measured. […] The lung squamous cell carcinoma cell line LK-2 (CBP60105) purchased from Nanjing Cobioer Biosciences was implanted subcutaneously in the right abdomen of the mice at an inoculation amount of 3 × 10 ^6 cells/mouse. When the tumor volume reached 150-200 mm^3, the mice were divided into groups such that the average initial administration volume of each group was substantially the same. The mice were administered only once throughout the experiment and injected intraperitoneally at a dose of 10 mg/kg. IgG-MB3 or IgG-DXd was used as a negative control. It was observed that two TROP2-targeted ADCs were also able to delay tumor growth in a tumor model with relatively low TROP2 expression (FIG. 7). […] The pancreatic cancer cell line BxPC3 cells purchased from ATCC were implanted subcutaneously in the right abdomen of the mice at an inoculation amount of 3 × 10 ^6 cells/mouse. […]

[2] = molecular target: Recombinant human TROP2 protein (Sino Biological) (human) (UniProt P09758); assay: BLI (Octet Red96e), antibody on AHC sensor, antigen 100 nM
[3] = molecular target: Rhesus Monkey Trop2 protein (Sino Biological 90893-C08H) (rhesus monkey); assay: as above
[4] = molecular target: human TROP2 protein on the surface of FaDu cells (human) (UniProt P09758); assay: flow cytometry on FaDu cells, fluorescent secondary antibody
[5] = system: human pancreatic cancer cell line BxPC-3; assay: In vitro cytotoxicity test, BxPC3 cells, 6 days; assay type: cell-based; conditions: BxPC3, 6 days of culture
Protocol: (§1) 10% FBS (SH30406.05, HYCLONE) was added to RPMI 1640 (22400-071, Gibco), and the mixture was mixed well to prepare a BxPC3 cell (ATCC) growth medium. BxPC3 or FaDu cells were adjusted to a concentration of 50000 cells/mL with a growth medium, seeded into a 96-well white-bottom plate (167008, NUNC) at 50 µL per well (2500 cells/well), and incubated overnight in an incubator at 37 °C. The antibody was diluted with growth medium and serially diluted 5-fold from 200 nM (2×) to obtain 9 gradients, with the final concentration being […]. The diluted antibody-drug conjugate or control was added at 50 µL/well, and the total volume was 100 µL. […] The cell pellet was fully lysed by shaking on a plate shaker for 5 min, and the luminescence signal was stabilized by standing at room temperature for 10 min. The culture plate was tested on a microplate reader (spectra MAX i3x, Molecular Divices), the […] were taken, and the cell viability was calculated. […]
(§2) The cell proliferation inhibition rate after 6 days of culture was calculated using the following formula.
(§3) Cell proliferation inhibition rate (%) = […], where a: the average value of experimental sample-added wells after 6 days of culture; b: the average value of control medium-added wells after 6 days of culture. The data were fitted by GraphPad Prism and the IC50 of the drug was calculated (Table 4).

[6] = system: drug-resistant triple-negative breast cancer (TNBC); conditions: patients with drug-resistant triple-negative breast cancer (TNBC); cited from earlier work
[7] = Days 1 and 8/every 21 days for 4 cycles; EMEA/H/C/005182/0000; cited from earlier work
[8] = mouse, in vivo, 10 mg/kg; cited from earlier work
[9] = system: human hypopharyngeal carcinoma squamous cell line FaDu; assay: In vitro cytotoxicity test, FaDu cells, 6 days; assay type: cell-based; conditions: 6 days of culture
Protocol: as §1, §2, §3

[10] = molecular target: T1, Rhesus Monkey Trop2 protein (Sino Biological 90893-C08H) (rhesus monkey, UniProt A0A5F8AGB8 27-274); assay: BLI (Octet Red96e), antibody on AHC sensor, antigen 100 nM
T1 construct: Bought recombinant protein
T1 sequence: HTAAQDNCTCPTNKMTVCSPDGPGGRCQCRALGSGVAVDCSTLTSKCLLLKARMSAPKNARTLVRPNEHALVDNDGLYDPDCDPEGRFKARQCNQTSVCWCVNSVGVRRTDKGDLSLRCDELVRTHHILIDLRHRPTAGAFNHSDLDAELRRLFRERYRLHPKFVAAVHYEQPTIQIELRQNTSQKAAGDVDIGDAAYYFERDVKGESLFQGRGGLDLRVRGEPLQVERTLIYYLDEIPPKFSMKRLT

[11] = molecular target: T2, Recombinant human TROP2 protein (Sino Biological) (human, UniProt P09758 27-274); assay: as above
T2 construct: Bought recombinant protein; The two paragraphs give different catalogue numbers; also called TACSTD2
T2 sequence (looked up): T1 sequence with V36M, N67S, V204I

[12] = molecular target: T3, rat TROP2 (Sino Biological 86246-R08H) (rat, UniProt A0ABK0L8S5 21-268); assay: BLI (Octet Red96e), antibody on AHC sensor, antigen in solution
T3 construct: Bought recombinant protein
T3 sequence: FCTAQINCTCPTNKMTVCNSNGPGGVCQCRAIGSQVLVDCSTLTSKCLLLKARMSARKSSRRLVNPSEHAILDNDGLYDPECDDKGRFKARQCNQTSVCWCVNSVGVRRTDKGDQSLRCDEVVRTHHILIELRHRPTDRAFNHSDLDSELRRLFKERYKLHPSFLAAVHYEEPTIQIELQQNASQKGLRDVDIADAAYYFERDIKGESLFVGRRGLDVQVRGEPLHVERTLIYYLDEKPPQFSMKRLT

[13] = molecular target: T4, mouse TROP2 (Sino Biological 50922-M08H) (mouse, UniProt Q8BGV3 25-270); assay: as above
T4 construct: Bought recombinant protein
T4 sequence (looked up): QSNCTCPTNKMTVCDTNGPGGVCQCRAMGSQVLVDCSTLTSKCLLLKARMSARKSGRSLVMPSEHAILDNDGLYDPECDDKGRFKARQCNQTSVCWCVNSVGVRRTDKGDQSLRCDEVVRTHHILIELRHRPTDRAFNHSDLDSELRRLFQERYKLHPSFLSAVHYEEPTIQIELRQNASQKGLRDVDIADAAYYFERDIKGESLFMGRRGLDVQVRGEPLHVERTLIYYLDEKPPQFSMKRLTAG

[14] = molecular target: T5, human TROP2 protein on the surface of FaDu cells (human, UniProt P09758 27-323); assay: flow cytometry on FaDu cells, fluorescent secondary antibody
T5 construct: whole, on cells; also called TROP2 protein on cell surface; human TROP2 protein at the cellular level
T5 sequence (looked up): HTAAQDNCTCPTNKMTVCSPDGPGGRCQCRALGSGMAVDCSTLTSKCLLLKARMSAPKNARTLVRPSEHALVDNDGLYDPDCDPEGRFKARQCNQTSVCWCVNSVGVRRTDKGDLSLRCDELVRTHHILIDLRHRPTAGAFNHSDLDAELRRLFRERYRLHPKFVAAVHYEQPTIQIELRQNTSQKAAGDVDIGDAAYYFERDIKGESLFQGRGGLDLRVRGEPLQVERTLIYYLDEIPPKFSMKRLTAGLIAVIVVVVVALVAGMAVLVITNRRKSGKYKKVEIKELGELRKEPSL

hRS7-DXd: antibody hRS7 conjugated with Linker-DXd, average DAR 4.4 [reference compound]
tumor inhibitory effect ([1]; high-dose group (3 mg/kg)): comparable tumor inhibitory effects | tumor inhibitory effect ([1]; low dose (1 mg/kg), compared with IgG-MB3 and IgG-DXd): a certain degree of tumor inhibitory effect

hTINA1 (the antibody used in Ds-1062), positive control antibody
Kd [2]: 22.8 nM | Response [2]: 0.284 | koff [2]: 0.0035 s⁻¹ | kon [2]: 154000 M⁻¹ s⁻¹ | Kd [3]: 32.5 nM | Response [3]: 0.21 | koff [3]: 0.00356 s⁻¹ | kon [3]: 110000 M⁻¹ s⁻¹ | EC50 [4]: 1.7 nM

Trodelvy [reference compound]
IC50 [5]: 0.42 nM | objective response rate (ORR) [6]: 33% | HNSTD [7]: 50 mg/kg | half-life in mice [8]: 11 h | IC50 [9]: 0.53 nM

B1: hRS7 antibody (hRS7-IgG1), humanized antibody targeting TROP2 in IgG1 form (antibody, V domains shown)
VH: QVQLQQSGSELKKPGASVKVSCKASGYTFTNYGMNWVKQAPGQGLKWMGWINTYTGEPTYTDDFKGRFAFSLDTSVSTAYLQISSLKADDTAVYFCARGGFGSSYWYFDVWGQGSLVTVSS
VL: DIQLTQSPSSLSASVGDRVSITCKASQDVSIAVAWYQQKPGKAPKLLIYSASYRYTGVPDRFSGSGSGTDFTLTISSLQPEDFAVYYCQQHYITPLTFGAGTKVEIKR
Kd [10]: 7.75 nM | koff [10]: 0.000823 s⁻¹ | kon [10]: 106000 M⁻¹ s⁻¹ | Kd [11]: 4.52 nM | koff [11]: 0.00056 s⁻¹ | kon [11]: 124000 M⁻¹ s⁻¹ | binding result [12]: no binding (tested: 100 nM) | binding result [13]: no binding (tested: 100 nM) | EC50 [14]: 1.58 nM
